Laboratory results from ChEMBL document CHEMBL1908105, “UDP-glucuronosyltransferases and clinical drug-drug interactions” (Pharmacol Ther, 2005).
Values joined by “and” are separate entries in the source; they are usually repeats but may differ in a detail not shown here. Equal entries are not always repeated.

Tests used:
[1] = Inhibition of AZT (0.02 mM) glucuronidation by human UGT enzymes from liver microsomes; set-up: species or system Microsome
[2] = target: T1, UDP-glucuronosyltransferase 1A4 (Homo sapiens, UniProt P22310); test: (§1) Drug glucuronidation reaction catalyzed by human recombinant UGT1A4
T1 sequence (P22310 whole entry): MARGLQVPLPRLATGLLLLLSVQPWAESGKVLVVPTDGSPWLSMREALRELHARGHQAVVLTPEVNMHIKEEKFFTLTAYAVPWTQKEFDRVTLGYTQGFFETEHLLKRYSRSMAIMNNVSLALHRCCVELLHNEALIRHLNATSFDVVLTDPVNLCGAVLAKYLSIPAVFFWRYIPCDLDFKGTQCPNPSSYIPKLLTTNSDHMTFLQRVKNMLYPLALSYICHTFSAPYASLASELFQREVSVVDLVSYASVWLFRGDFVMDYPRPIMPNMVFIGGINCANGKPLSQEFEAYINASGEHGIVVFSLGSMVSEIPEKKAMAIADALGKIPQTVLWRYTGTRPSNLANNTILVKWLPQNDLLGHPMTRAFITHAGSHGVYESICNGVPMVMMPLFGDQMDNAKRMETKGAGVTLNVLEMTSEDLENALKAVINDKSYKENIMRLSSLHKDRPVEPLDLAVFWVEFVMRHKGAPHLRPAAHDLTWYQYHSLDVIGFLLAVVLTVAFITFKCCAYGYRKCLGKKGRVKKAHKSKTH

[3] = target: UDP-glucuronosyltransferase 2B15 (Homo sapiens, UniProt P54855); test: Drug glucuronidation reaction catalyzed by human recombinant UGT2B15
Chain of UDP-glucuronosyltransferase 2B15 (P54855 whole entry): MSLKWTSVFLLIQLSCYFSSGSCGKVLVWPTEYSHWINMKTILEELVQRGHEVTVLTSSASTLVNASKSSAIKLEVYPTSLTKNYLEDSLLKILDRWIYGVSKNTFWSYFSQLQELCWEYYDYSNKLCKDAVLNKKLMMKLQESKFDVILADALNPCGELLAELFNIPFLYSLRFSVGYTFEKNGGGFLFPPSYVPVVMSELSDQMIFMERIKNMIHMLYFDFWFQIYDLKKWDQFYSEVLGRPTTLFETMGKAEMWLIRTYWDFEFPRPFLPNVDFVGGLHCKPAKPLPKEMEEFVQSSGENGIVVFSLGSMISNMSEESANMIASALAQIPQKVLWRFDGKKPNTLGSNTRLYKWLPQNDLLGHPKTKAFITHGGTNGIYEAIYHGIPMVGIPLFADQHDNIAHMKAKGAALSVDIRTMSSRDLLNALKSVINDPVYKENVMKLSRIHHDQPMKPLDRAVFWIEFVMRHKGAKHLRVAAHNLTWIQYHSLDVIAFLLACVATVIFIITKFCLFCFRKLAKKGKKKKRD

[4] = target: T2, UDP-glucuronosyltransferase 1A9 (Homo sapiens, UniProt O60656); test: Drug glucuronidation reaction catalyzed by human recombinant UGT1A9
T2 sequence (O60656 whole entry): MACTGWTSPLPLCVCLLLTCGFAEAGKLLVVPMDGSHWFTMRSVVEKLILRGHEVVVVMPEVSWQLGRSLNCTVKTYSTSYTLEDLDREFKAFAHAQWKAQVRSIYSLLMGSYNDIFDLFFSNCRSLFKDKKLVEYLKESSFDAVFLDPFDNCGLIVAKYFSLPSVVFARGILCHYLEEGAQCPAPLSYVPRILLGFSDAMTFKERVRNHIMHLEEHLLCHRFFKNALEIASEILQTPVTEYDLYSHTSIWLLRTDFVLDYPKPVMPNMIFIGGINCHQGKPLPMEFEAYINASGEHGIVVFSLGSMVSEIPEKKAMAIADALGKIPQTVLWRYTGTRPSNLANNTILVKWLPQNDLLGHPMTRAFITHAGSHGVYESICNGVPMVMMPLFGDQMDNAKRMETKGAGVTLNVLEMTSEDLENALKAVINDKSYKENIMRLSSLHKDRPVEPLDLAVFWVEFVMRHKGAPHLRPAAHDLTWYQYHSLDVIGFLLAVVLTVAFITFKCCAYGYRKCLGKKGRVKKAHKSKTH

[5] = target: T3, UDP-glucuronosyltransferase 1A1 (Homo sapiens, UniProt P22309); test: (§2) Drug glucuronidation reaction catalyzed by human recombinant UGT1A1
T3 sequence (P22309 whole entry): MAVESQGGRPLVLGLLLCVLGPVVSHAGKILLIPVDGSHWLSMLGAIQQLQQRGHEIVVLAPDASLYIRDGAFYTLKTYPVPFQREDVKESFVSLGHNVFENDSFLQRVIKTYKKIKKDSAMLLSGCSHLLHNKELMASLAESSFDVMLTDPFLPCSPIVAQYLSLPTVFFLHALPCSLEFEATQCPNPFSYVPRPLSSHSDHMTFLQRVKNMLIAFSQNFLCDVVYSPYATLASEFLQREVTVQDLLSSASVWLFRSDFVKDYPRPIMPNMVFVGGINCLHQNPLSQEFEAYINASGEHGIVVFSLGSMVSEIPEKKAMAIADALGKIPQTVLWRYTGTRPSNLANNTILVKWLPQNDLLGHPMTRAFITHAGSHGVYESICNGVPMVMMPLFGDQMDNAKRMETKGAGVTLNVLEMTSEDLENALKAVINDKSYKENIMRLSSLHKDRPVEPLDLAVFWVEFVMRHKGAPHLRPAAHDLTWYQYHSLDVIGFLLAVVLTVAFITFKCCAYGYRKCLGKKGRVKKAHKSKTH

not read = substrate: Cc1c(Cl)cccc1Nc1ncccc1C(=O)O; test: not read
[6] = substrate: CN(C)CCCN1c2ccccc2CCc2ccccc21; test: (§3) Drug glucuronidation reaction catalyzed by human recombinant UGT1A3
[7] = substrate: CN1CC[C@]23c4c5ccc(O[C@@H]6O[C@H](C(=O)O)[C@@H](O)[C@H](O)[C@H]6O)c4O[C@H]2[C@@H](O)C=C[C@H]3[C@H]1C5; test: as §3
[8] = substrate: CN1CCC(=C2c3ccccc3C=Cc3ccccc32)CC1; test: as §3
[9] = substrate: O=C1[C@H](CC[C@H](O)c2ccc(F)cc2)[C@@H](c2ccc(O)cc2)N1c1ccc(F)cc1; test: as §3
[10] = substrate: CO[C@]12CC[C@@]3(C[C@@H]1[C@](C)(O)C(C)(C)C)[C@H]1Cc4ccc(O)c5c4[C@@]3(CCN1CC1CC1)[C@H]2O5; test: as §3
[11] = substrate: CN1CCC(=C2c3ccccc3CC(=O)c3sccc32)CC1; test: as §3
[12] = substrate: CC(C(=O)O)c1cccc(C(=O)c2ccccc2)c1; test: as §3
[13] = substrate: CC(C)Cc1ccc(C(C)C(=O)O)cc1; test: as §3
[14] = substrate: CCc1c2c(nc3ccc(O)cc13)-c1cc3c(c(=O)n1C2)COC(=O)[C@]3(O)CC; test: as §1
[15] = substrate: CN1CCC(=C2c3ccccc3C=Cc3ccccc32)CC1; test: as §1
[16] = substrate: CC/C(=C(\c1ccccc1)c1ccc(OCCN(C)C)cc1)c1ccccc1; test: as §1
[17] = substrate: CN1CCC(=C2c3ccccc3CC(=O)c3sccc32)CC1; test: as §1
[18] = substrate: CC[C@@H]([C@H](C)O)n1ncn(-c2ccc(N3CCN(c4ccc(OC[C@@H]5CO[C@@](Cn6cncn6)(c6ccc(F)cc6F)C5)cc4)CC3)cc2)c1=O; test: as §1
[19] = substrate: CC(O)/C(=C(\c1ccccc1)c1ccc(OCCN(C)C)cc1)c1ccccc1; test: as §1
[20] = substrate: CC(=O)Nc1ccc(O)cc1; test: as §2
[21] = substrate: CN1CC[C@]23c4c5ccc(O[C@@H]6O[C@H](C(=O)O)[C@@H](O)[C@H](O)[C@H]6O)c4O[C@H]2[C@@H](O)C=C[C@H]3[C@H]1C5; test: as §2
[22] = substrate: CCN(CC)C(=O)/C(C#N)=C/c1cc(O[C@@H]2O[C@@H](C(=O)O)[C@@H](O)[C@H](O)[C@@H]2O)c(O)c([N+](=O)[O-])c1; test: as §2
[23] = substrate: CCc1c2c(nc3ccc(O)cc13)-c1cc3c(c(=O)n1C2)COC(=O)[C@]3(O)CC; test: as §2
[24] = substrate: CCN(CC)C(=O)/C(C#N)=C\c1cc(O[C@@H]2O[C@@H](C(=O)O)[C@@H](O)[C@H](O)[C@@H]2O)c(O)c([N+](=O)[O-])c1; test: as §2
[25] = substrate: O=C1CC[C@@]2(O)[C@H]3Cc4ccc(O)c5c4[C@@]2(CCN3CC2CC2)[C@H]1O5; test: as §2
[26] = substrate: C#C[C@]1(O)CC[C@H]2[C@@H]3CCc4cc(O)ccc4[C@H]3CC[C@@]21C; test: as §2
[27] = substrate: O=C1[C@H](CC[C@H](O)c2ccc(F)cc2)[C@@H](c2ccc(O)cc2)N1c1ccc(F)cc1; test: as §2
[28] = substrate: COc1cc([C@@H]2c3cc4c(cc3[C@@H](O[C@@H]3O[C@@H]5CO[C@@H](C)O[C@H]5[C@H](O)[C@H]3O)[C@H]3COC(=O)[C@H]23)OCO4)cc(OC)c1O; test: as §2
[29] = substrate: C=CCN1CC[C@]23c4c5ccc(O)c4O[C@H]2[C@@H](O)C=C[C@H]3[C@H]1C5; test: as §2
[30] = substrate: CO[C@]12CC[C@@]3(C[C@@H]1[C@](C)(O)C(C)(C)C)[C@H]1Cc4ccc(O)c5c4[C@@]3(CCN1CC1CC1)[C@H]2O5; test: as §2
[31] = substrate: COc1c(C)c2c(c(O)c1C/C=C(\C)CCC(=O)O)C(=O)OC2; test: as §2
[32] = substrate: CC(O)/C(=C(\c1ccccc1)c1ccc(OCCN(C)C)cc1)c1ccccc1; test: as §2
[33] = substrate: CCOC(=O)Nc1ccc(NCc2ccc(F)cc2)cc1N; test: as §2

## O=C1C(O)=C([C@H]2CC[C@H](c3ccc(Cl)cc3)CC2)C(=O)c2ccccc21 [ATOVAQUONE]
[1]
  IC50: > 273 µM

## CC(O)/C(=C(\c1ccccc1)c1ccc(OCCN(C)C)cc1)c1ccccc1 (stereo in doubt; trans)
[2]
  Vmax: 547 pmol/min/mg protein
[3]
  Vmax: 70 pmol/min/mg protein
[4]
  Vmax: 72 pmol/min/mg protein
[5]
  Vmax: 166 pmol/min/mg protein

## CC(O)/C(=C(\c1ccccc1)c1ccc(OCCN(C)C)cc1)c1ccccc1 (stereo in doubt; cis)
[2]
  Vmax: 315 pmol/min/mg protein
[3]
  Vmax: 720 pmol/min/mg protein
[4]
  Vmax: 57 pmol/min/mg protein
[5]
  Vmax: 291 pmol/min/mg protein

## OC(Cn1cncn1)(Cn1cncn1)c1ccc(F)cc1F [FLUCONAZOLE]
[1]
  IC50: 163 µM

B1: UDP-glucuronosyltransferase 1A3 (Homo sapiens) (protein)
chain: MATGLQVPLPWLATGLLLLLSVQPWAESGKVLVVPIDGSHWLSMREVLRELHARGHQAVVLTPEVNMHIKEENFFTLTTYAISWTQDEFDRHVLGHTQLYFETEHFLKKFFRSMAMLNNMSLVYHRSCVELLHNEALIRHLNATSFDVVLTDPVNLCAAVLAKYLSIPTVFFLRNIPCDLDFKGTQCPNPSSYIPRLLTTNSDHMTFMQRVKNMLYPLALSYICHAFSAPYASLASELFQREVSVVDILSHASVWLFRGDFVMDYPRPIMPNMVFIGGINCANRKPLSQEFEAYINASGEHGIVVFSLGSMVSEIPEKKAMAIADALGKIPQTVLWRYTGTRPSNLANNTILVKWLPQNDLLGHPMTRAFITHAGSHGVYESICNGVPMVMMPLFGDQMDNAKRMETKGAGVTLNVLEMTSEDLENALKAVINDKSYKENIMRLSSLHKDRPVEPLDLAVFWVEFVMRHKGAPHLRPAAHDLTWYQYHSLDVIGFLLAVVLTVAFITFKCCAYGYRKCLGKKGRVKKAHKSKTH
Not read
  Km: 624 µM
  Vmax: 5.2e-05 µmol/min/mg
[6]
  Km: 472 µM
  Vmax: 1e-05 µmol/min/mg
[7]
  Km: 3200 µM
  Vmax: 1e-05 µmol/min/mg
[8]
  Km: 240 µM
  Vmax: 0.000134 µmol/min/mg
[9]
  Km: 42 µM
  Vmax: 0.00048 µmol/min/mg
[10]
  Km: 55 µM
  Vmax: 7.5e-05 µmol/min/mg
[11]
  Km: 225 µM and 123 µM
[12]
  Km: 84 µM
  Vmax: 7.6e-05 µmol/min/mg
[13]
  Km: 230 µM
  Vmax: 8.8e-05 µmol/min/mg

B2: UDP-glucuronosyltransferase 1A4 (Homo sapiens) (protein)
chain: T1 sequence (P22310 whole entry)
[14]
  Km: 147 µM
  Vmax: 0.000132 µmol/min/mg
[15]
  Km: 62 µM
  Vmax: 4.9e-05 µmol/min/mg
[16]
  Km: 32 µM
  Vmax: 0.000402 µmol/min/mg
[17]
  Km: 59 µM and 86 µM
[18]
  Km: 16 µM
  Vmax: 1.7e-05 µmol/min/mg
[19]
  Km: 95 µM and 101 µM

B3: UDP-glucuronosyltransferase 1A1 (Homo sapiens) (protein)
chain: T3 sequence (P22309 whole entry)
[20]
  Km: 9400 µM
  Vmax: 0.0013 µmol/min/mg
[21]
  Km: 18700 µM
  Vmax: 4.5e-06 µmol/min/mg
[22]
  Km: 31 µM
  Vmax: 4e-06 µmol/min/mg
[23]
  Km: 24 µM
  Vmax: 0.000134 µmol/min/mg
[24]
  Km: 93 µM
  Vmax: 5e-06 µmol/min/mg
[25]
  Km: 1310 µM
  Vmax: 2e-06 µmol/min/mg
[26]
  Km: 9 µM and 20 µM
[27]
  Km: 64 µM
  Vmax: 0.00071 µmol/min/mg
[28]
  Km: 503 µM
  Vmax: 0.000267 µmol/min/mg
[29]
  Km: 2070 µM
  Vmax: 2e-06 µmol/min/mg
[30]
  Km: 57 µM and 69 µM
[31]
  Km: 185 µM
  Vmax: 0.000336 µmol/min/mg
[32]
  Km: 138 µM and 129 µM
[33]
  Km: 460 µM
